Results as given in doi:10.1101/2022.12.06.519310 (bioRxiv, 2022).
Ends that are not written are not given here. * marks the point of attachment. NHCH2CH2(5-OH-indol-3-yl) = Oc1ccc2[nH]cc(CCN*)c2c1

Molecular target: full length recombinant WDR5 (human, UniProt P61964 1-334)
Assay: pull-down

| Binder | binding result |
| --- | --- |
| ARTKQTARKS (also: biotinylated, position not given here) [biotinylated H3 (1-10) unmodified peptide] | binds |
| ARTKQ(NHCH2CH2(5-OH-indol-3-yl))TARKS (also: biotinylated, position not given here) [biotinylated H3 (1-10) Q5ser peptide] | binds |
